B1: DFFB (parent)
chain: KLNCDPSRIYKPQTRLKRKQPVRK
B2: CPOX (parent)
chain: HAPTIHFNYRYFEVEEADGNKQWW

Variants of: B1
Experiment: protein stability index of a GFP-peptide fusion (GPS, HEK-293T) (PSI 1-6); higher = more stable
Details: c terminus: a fixed tail appended
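Note: lentivirally expressed fusions sorted by FACS into six bins by GFP to DsRed ratio, PSI derived from sequencing read proportions per bin multiplied by bin number.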

Protein stability index of substitutions, site by site:
Q13: Y 3.46 | V 3.8 | M 3.51 | P 3.76 | G 3.56 | D 3.83 | A 4.01 | I 3.24 | C 3.56 | E 4.16 | L 3.09 | H 4.35 | K 4.12 | R 3.08 | S 3.44 | T 3.66 | N 3 | W 3.6
R18: Y 3.05 | D 3.34 | I 3.32 | K 3.76 | V 3.89 | A 2.94 | W 3.03 | S 3.37 | H 3.13 | N 3.23 | G 3.28 | Q 3.4 | P 3.83 | F 3.44 | M 3.68 | L 3.62 | C 3.43 | T 3.96 | E 4.21
R23: C 3.21 | P 3.84 | I 3.53 | V 3.25 | S 3.49 | G 3.35 | K 3.01 | Q 3.9 | T 3.77 | Y 3.48 | H 3.43 | M 3.1 | L 2.81 | W 2.59 | A 3.39 | E 3.34 | D 3.83
V22: M 3.42 | D 3.67 | R 2.03 | C 3.41 | E 3.31 | N 3.62 | Y 2.22 | G 4.39 | W 3.26 | Q 3.39 | F 3.48 | P 3.87 | L 3.62 | S 4.09 | H 3.75 | A 3.77 | T 3.64 | I 3.78 | K 3.14
R15: T 3.76 | S 3.96 | G 3.58 | Q 2.67 | D 3.09 | Y 2.17 | L 2.69 | W 3.02 | E 3.68 | H 3.59 | F 3.25 | K 3.24 | V 3.49 | P 3.6 | I 3.52 | M 3.21 | C 3.24 | A 2.82 | N 3.26
K17: C 3.38 | L 2.14 | P 3 | E 3.42 | T 3.14 | V 3.25 | M 3.45 | A 2.98 | G 4.14 | Q 2.9 | N 3.21 | W 3.19 | R 3.18 | S 3.35 | I 3.21 | F 3.45 | Y 3.68 | H 2.55 | D 2.17
L16: N 3.85 | T 4.05 | P 3.83 | I 3.67 | R 3.48 | A 3.34 | D 2.92 | W 3 | M 3.23 | V 3.88 | Y 3.77 | Q 3.9 | H 3.9 | F 2.8 | C 2.95 | K 3.07 | S 3.6 | E 4.44 | G 4.16
Q20: D 3.35 | N 3.66 | I 3.69 | Y 2.91 | K 3.7 | V 3.54 | H 3.12 | E 3.04 | M 4.04 | G 4.19 | C 3.6 | W 3.24 | A 3.38 | P 2.98 | T 4.39 | R 3.59 | S 2.75 | F 3.15
T14: L 3.91 | K 3.54 | P 3.11 | A 3.56 | E 3.28 | S 3.19 | F 2.68 | Q 3.31 | M 2.64 | C 3.61 | R 3.52 | G 3.49 | Y 3.49 | I 3.34 | N 3.58 | W 3.95 | V 3.51 | H 3.77 | D 3.28
K19: L 3.14 | H 3.49 | A 3.66 | W 2.94 | S 2.78 | T 3.52 | G 2.63 | E 2.93 | V 2.96 | C 2.69 | I 3.18 | M 3.31 | N 3.54 | D 3.53 | Y 2.89 | F 1.86 | P 3.25 | R 3.9 | Q 3.34
P21: W 3.45 | A 4.07 | M 3.76 | E 3.28 | S 3.13 | Y 3.91 | D 2.71 | G 3.49 | C 3.36 | Q 3.37 | I 3.16 | F 3.37 | K 2.75 | H 3.41 | V 3.31 | T 3.86 | R 3.31 | N 3.67
P12: S 3.89 | Q 2.24 | L 2.86 | T 3.69 | N 4.49 | W 3.21 | K 3.46 | Y 2.79 | R 3.33 | M 3.31 | I 2.85
K24: Y 3.11 | P 3.32 | D 3.56 | N 3.44 | T 4.04 | I 3.03 | F 2.7 | E 3.99 | C 2.96 | H 3.15 | A 4.04 | L 2.87 | R 3.96 | Q 3.18 | G 3.23 | M 3.11 | S 4.02 | V 2.49

Variants of: B2
Experiment: as above
Details: c terminus: a fixed tail appended

Protein stability index, by site and new letter:
P3: K 1.93 | F 2.6 | M 1.97 | E 1.99 | D 2.67 | I 2.92 | Y 2.39 | T 2.38 | Q 1.65 | V 1.8 | A 1.97 | H 2.2 | G 2.85 | L 2.49 | C 1.62 | N 2.09 | S 1.99 | W 1.17 | R 2.69
H1: N 2.54 | I 2.05 | T 2.91 | R 3.24 | E 2.42 | V 2.69 | A 2.46 | P 2.62 | D 1.84 | S 2.89 | G 3.62 | W 2.62 | M 2.15 | Q 2.96 | C 2.15 | K 2.37 | L 1.92
T4: Y 1.39 | H 2.62 | S 2.8 | V 2.45 | W 2.15 | M 1.97 | R 1.8 | L 2.31 | N 2.63 | E 2.29 | I 2.21 | Q 2.66 | P 2.7 | D 2.96 | G 2.57 | A 2.38 | K 2.26 | C 2.01 | F 2.12
A2: T 2.5 | I 1.73 | V 2.85 | P 2.34 | F 2.26 | M 2.16 | H 2.44 | E 3.45 | R 2.73 | Q 3.31 | L 2.11 | C 1.99 | Y 2.33 | W 2.02 | N 2.46 | K 2.38 | G 2.43 | S 2.78 | D 2.94
H6: A 2.19 | E 2.66 | C 1.9 | K 2.36 | F 1.52 | I 2.34 | D 2.92 | G 2.77
I5: F 2.44 | K 2.29 | R 2.64 | P 2.78 | S 2.65 | W 2.47 | M 3.15 | E 3.55 | T 2.78 | H 2.82 | G 2.25 | V 2.43 | Q 2.7 | D 3.41 | C 2.4 | L 2.14 | Y 1.97 | N 2.9 | A 2.69

Reference: the supplement of paper PMC10567573
